{"source": "patent US10544159B2", "about": "“Artemisinin derivatives, methods for their preparation and their use as antimalarial agents” (priority 2012, dated 2020)", "molecules": {"B1": {"name": "II-H10: FL#62-derived P450 variant (SEQ ID NO. 11), 7(R)-hydroxylating (protein)", "chain": "MTIKEMPQPKTFGELKNLPLLNTDKPVQALMKIADELGEIFKFEAPGRVTRYLSSQRLIKEACDESRFDKNLSQALKFNRDFTGDGLFTSWTHEKNWKKAHNILLPSFSQQAMKGYHAMMVDIAVQLVQKWERLNADEHIEVSEDMTRLTLDTIGLCGFNYRFNSFYRDQPHPFIISMVRTFDETMNKLQRANPDDPVYDENKRQCQEDIKVMNDLVDKIIADRKARGEQSDDLLTQMLNGKDPETGEPLDDGNISYQIITFLIAGHETTSGLLSFALYFLVKNPHVLQKVAEEAARVLVDPVPSYKQVKQLKYVGMVLNEALRLWPTAPAFSLYAKEDTVLGGEYPLEKGDEVMVLIPQLHRDKTIWGDDVEEFRPERFENPSAIPQHAFKPFGNGQRACIGQQFALHEATLVLGMMLKHFDFEDHTNYELDIKETLTLKPEGFVVKAKSKKIPLGGIPSPSTEQSAKKVRKKAENAHNTPLLVLYGSNMGTAEGTARDLADIAMSKGFAPQVATLDSHAGNLPREGAVLIVTASYNGHPPDNAKQFVDWLDQASADEVKGVRYSVFGCGDKNWATTYQKVPAFIDETLAAKGAENIADRGEADASDDFEGTYEEWREHMWSDVAAYFNLDIENSEDNKSTLSLQFVDSAADMPLAKMHGAFSTNVVASKELQQPGSARSTRHLEIELPKEASYQEGDHLGVIPRNYEGIVNRVTARFGLDASQQIRLEAEEEKLAHLPLAKTVSVEELLQYVELQDPVTRTQLRAMAAKTVCPPHKVELEALLEKQAYKEQVLAKRLTMLELLEKYPACEMKFSEFIALLPSIRPRYYSISSSPRVDEKQASITVSVVSGEAWSGYGEYKGIASNYLAELQEGDTITCFISTPQSEFTLPKDPETPLIMVGPGTGVAPFRGFVQARKQLKEQGQSLGEAHLYFGCRSPHEDYLYQEELENAQSEGIITLHTAFSRMPNQPKTYVQHVMEQDGKKLIELLDQGAHFYICGDGSQMAPAVEATLMKSYADVHQVSEADARLWLQQLEEKGRYAKDVWAG"}, "B2": {"name": "III-B1: FL#62-derived P450 variant (SEQ ID NO. 12) (protein)", "chain": "B1 chain with N79F, T83A, F88A, F182L, T185V"}}, "key": {"[1]": {"target": "P450 variant FL#62 (SEQ ID NO. 8) (Priestia megaterium, UniProt P14779, A181T/A185V/A198V/A291V/A83V/E253G/F206C/F82S/F88A/H237Q/L354V/P143S/R256S/S227R/T176I/V79A)", "sequence (P14779 other isoform, or with tags, fused parts or gaps with the stated changes)": "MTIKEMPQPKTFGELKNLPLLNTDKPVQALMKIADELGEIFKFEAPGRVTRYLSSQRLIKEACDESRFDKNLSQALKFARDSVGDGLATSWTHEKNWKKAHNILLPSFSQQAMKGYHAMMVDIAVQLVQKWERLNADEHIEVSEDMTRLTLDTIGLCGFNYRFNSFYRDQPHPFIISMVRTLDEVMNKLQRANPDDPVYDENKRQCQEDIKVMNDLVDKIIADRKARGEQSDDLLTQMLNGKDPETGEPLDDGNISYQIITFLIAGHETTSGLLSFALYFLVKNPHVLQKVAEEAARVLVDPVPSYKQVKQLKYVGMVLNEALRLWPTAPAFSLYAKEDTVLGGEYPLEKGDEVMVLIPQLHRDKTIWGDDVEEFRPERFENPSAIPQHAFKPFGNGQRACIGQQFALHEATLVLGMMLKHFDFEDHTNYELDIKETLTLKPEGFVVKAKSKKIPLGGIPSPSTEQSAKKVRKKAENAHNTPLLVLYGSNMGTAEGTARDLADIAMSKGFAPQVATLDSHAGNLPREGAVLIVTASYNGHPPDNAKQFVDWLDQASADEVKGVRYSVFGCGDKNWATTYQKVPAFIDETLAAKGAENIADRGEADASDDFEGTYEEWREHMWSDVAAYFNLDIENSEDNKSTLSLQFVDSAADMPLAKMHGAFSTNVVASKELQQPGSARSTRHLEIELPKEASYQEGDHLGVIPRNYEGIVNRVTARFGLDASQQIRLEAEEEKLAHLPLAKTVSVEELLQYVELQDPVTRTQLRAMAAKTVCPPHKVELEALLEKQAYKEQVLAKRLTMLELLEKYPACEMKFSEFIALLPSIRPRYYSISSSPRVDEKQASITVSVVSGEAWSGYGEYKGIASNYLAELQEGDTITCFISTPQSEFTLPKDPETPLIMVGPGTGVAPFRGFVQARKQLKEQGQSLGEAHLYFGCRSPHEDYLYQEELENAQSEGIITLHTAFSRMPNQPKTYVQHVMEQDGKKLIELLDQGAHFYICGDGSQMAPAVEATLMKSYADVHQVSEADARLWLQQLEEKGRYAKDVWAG", "conditions": "0.5 mM substrate, 1 μM FL#62, 12 hours", "experimental": "Reaction conditions were: 0.5 mM substrate, 1 μM FL#62 (SEQ ID NO: 8), 2 μM PTDH, 100 μM NADP^+, and 50 mM sodium phosphite in potassium phosphate buffer (50 mM, pH 8.0). After 12 hours, the hydroxylation products formed in these reactions were extracted with dichloromethane and quantified by HPLC and LC-MS."}, "P. berghei ANKA": {"system": "P. berghei ANKA", "assay": "Antimalarial activity in Plasmodium berghei-infected mice", "assay_type": "in vivo", "set-up": "fold higher survival rate than in the absence of treatment: concentration or dose not given beside the values", "conditions": "male C57BL6 mice, after day 7", "experimental": "Briefly, asynchronous P. falciparum (strain 3d7) cultures were maintained at 37° C. at >10% parasitemia in fresh human red blood cells (2% hematocrit) in complete malaria medium. After 4 days (i.e., after 2 replicative parasitic cycles) flasks were synchronized with 5% sorbitol. 72 hours after synchronization, cells were plated and treated with the artemisinin derivatives at various concentrations. After 48 hours of incubation, the cells were lysed and labeled with SybrGreen and fluorescence emission was measured (excitation at 485 nm, emission at 530 nm). […] For the in vivo studies, male C57BL6 mice (6-8 weeks old) were infected with 0.7×10^5 P. berghei ANKA iRBCs and then treated with intraperitoneal injections of the compounds starting from day 3-5 post infection. A set of mice was left untreated and served as negative control. Survival was monitored and parasitemia determined SYBR-green (SYBRGr) staining of infected red blood cells and subsequent flow cytometric analysis."}, "wild-type P450BM3": {"target": "wild-type P450BM3 (Priestia megaterium, UniProt P14779)", "sequence (P14779 whole entry)": "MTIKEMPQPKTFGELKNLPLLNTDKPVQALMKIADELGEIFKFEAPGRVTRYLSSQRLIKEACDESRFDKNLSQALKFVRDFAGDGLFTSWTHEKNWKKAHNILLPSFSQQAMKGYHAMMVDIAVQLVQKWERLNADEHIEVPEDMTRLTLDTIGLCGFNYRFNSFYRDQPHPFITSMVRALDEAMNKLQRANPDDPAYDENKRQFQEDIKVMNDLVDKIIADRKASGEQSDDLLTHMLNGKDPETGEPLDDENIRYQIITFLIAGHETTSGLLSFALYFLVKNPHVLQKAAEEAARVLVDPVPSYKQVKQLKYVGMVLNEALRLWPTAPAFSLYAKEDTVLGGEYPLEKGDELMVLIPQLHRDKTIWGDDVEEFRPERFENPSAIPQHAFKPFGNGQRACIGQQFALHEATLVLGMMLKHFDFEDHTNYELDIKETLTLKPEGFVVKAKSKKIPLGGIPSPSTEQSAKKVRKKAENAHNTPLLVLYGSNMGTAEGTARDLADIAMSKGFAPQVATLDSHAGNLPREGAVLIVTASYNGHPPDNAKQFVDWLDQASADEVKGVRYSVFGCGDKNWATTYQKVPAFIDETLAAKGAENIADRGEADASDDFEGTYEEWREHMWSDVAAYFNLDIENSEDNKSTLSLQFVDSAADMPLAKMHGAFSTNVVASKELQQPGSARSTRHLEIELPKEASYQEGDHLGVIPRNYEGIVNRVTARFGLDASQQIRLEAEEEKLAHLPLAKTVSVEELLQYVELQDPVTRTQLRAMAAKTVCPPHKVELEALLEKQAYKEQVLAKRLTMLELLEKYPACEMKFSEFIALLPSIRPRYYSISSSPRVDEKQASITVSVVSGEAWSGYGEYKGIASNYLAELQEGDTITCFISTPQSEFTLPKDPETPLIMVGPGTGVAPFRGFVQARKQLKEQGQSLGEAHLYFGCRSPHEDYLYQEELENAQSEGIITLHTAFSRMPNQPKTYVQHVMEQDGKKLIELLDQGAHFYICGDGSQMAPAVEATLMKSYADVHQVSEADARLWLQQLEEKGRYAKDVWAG", "conditions": "fatty acid laurate with wild-type P450BM3; read-out: equilibrium dissociation constant; cited from earlier work"}, "[2]": {"assay": "Total turnovers and regio-/stereoselectivity of P450 variants in artemisinin hydroxylation (analytical scale)", "assay_type": "biochemical", "conditions": "for Product distribution (%) 4: share of 6a-hydroxy-ART (4); for Product distribution (%) 4 / Product distribution (%) 3 / Product distribution (%) 2: 0.5 mM artemisinin, 0.5-1 μM P450, 12 hours; for Product distribution (%) 3: share of 7(R)-hydroxy-ART (3); for Product distribution (%) 2: share of 7(S)-hydroxy-ART (2); for TTN: total turnovers on artemisinin, NADPH cofactor regeneration system, analytical scale", "experimental": "Determination of Total Turnovers and Regio- and Stereoselectivity of the P450 Variants.\nAfter 12 hours, 9-fluorenone was added to the mixtures as internal standard. The hydroxylation products were functionalized with benzoyl chloride followed by HPLC analysis. TTN values were calculated based on the total amount of hydroxylated products in the reactions as quantified based on the calibration curves generated using purified 2-4. The enzyme regio- and stereoselectivity was determined based on the area under the curve of the chromatographic peaks corresponding to the hydroxylation products 2, 3, and 4. Mean and standard deviation values reported for P450 variants in Table 1 were calculated from experiments performed at least in triplicate."}, "[3]": {"assay_type": "biochemical", "conditions": "250 μM artemisinin, rates measured over initial 30 seconds", "experimental": "Measurement of Product Formation Rates and Coupling Efficiency.\nInitial product formation rates were measured from 1 mL-scale reactions containing 250 μM artemisinin, 0.1-0.5 μM purified P450, and 200 μM NADPH in potassium phosphate buffer (50 mM, pH 8.0) at room temperature. After 30 seconds, the samples were extracted with dichloromethane and subjected to benzoyl chloride derivatization followed by HPLC analysis as described above. Cofactor oxidation rate in the presence of artemisinin was measured by monitoring NADPH depletion at 340 nm (ε=6.22 mM^−1 cm^−1) using 0.1 μM purified P450, 250 μM artemisinin, and 200 μM NADPH. Coupling efficiency was calculated from the ratio between the initial product formation rate and the initial NADPH oxidation rate. Reported mean and standard deviation values were calculated from experiments performed at least in triplicate."}, "[4]": {"assay": "KD for artemisinin binding to P450 variants (heme spin-shift titration)", "conditions": "binding of artemisinin to 3 μM purified P450, pH 8.0", "experimental": "Determination of KD Values for Artemisinin Binding.\nBinding experiments were performed using 3 μM purified P450 in potassium phosphate buffer (50 mM, pH 8.0) by titrating increasing amounts of artemisinin (5 μM to 1 mM) from an ethanol stock solution (50 mM). At each concentration, a difference spectrum from 350 to 500 nm was recorded and binding curves were generated by plotting the change in absorbance at 390 nm and 420 nm corresponding to the high-spin and low-spin state of the enzyme, respectively, against the artemisinin concentration. KD values were calculated using Sigma Plot via non-linear fitting of the experimental binding curves to an equation describing a standard 1:1 binding interaction. Reported mean and standard deviation values were calculated from experiments performed at least in triplicate."}}, "note": "Residue numbers refer to the chain shown, from its start."}
{"molecule": "COC(=O)CCC(=O)O[C@@H]1O[C@@H]2O[C@@]3(C)CC[C@H]4[C@H](C)CC[C@@H]([C@H]1C)[C@@]24OO3", "note": "[artesunate methyl ester]", "values": [{"measurement": "catalytic activity relative to that displayed in the presence of artemisinin", "setting": "[1]", "result": "ca. 80%"}]}
{"molecule": "CC1C(=O)OC2OC3(C)CCC4C(C)[C@H](F)CC1C24OO3", "note": "(stereo partly drawn) [Compound 5, 7(R)-fluoro-artemisinin]", "values": [{"measurement": "survival rate", "setting": "P. berghei ANKA; intraperitoneal injections starting from day 3-5 post infection", "result": 80, "unit": "%"}, {"measurement": "fold higher survival rate than in the absence of treatment", "setting": "P. berghei ANKA; intraperitoneal", "result": 2, "unit": "fold"}]}
{"molecule": "CCCCCCCCCCCC(=O)O", "note": "[laurate]", "values": [{"measurement": "Kd", "setting": "wild-type P450BM3", "result": 270, "unit": "µM"}]}
{"molecule": "B1", "values": [{"measurement": "Product distribution (%) 4", "setting": "[2]", "result": 0, "unit": "%"}, {"measurement": "Product distribution (%) 3", "setting": "[2]", "result": 100, "unit": "%"}, {"measurement": "Product distribution (%) 2", "setting": "[2]", "result": 0, "unit": "%"}, {"measurement": "TTN", "setting": "[2]", "result": "270 ± 8"}, {"measurement": "Product formation rate", "setting": "[3]", "result": "32 ± 2 Mole product per mole P450 per minute"}, {"measurement": "Kd", "setting": "[4]", "result": "61 ± 2", "unit": "µM"}]}
{"molecule": "B2", "values": [{"measurement": "Product distribution (%) 4", "setting": "[2]", "result": 0, "unit": "%"}, {"measurement": "Product distribution (%) 3", "setting": "[2]", "result": 81, "unit": "%"}, {"measurement": "Product distribution (%) 2", "setting": "[2]", "result": 19, "unit": "%"}, {"measurement": "TTN", "setting": "[2]", "result": "403 ± 17"}, {"measurement": "Product formation rate", "setting": "[3]", "result": "72 ± 2 Mole product per mole P450 per minute"}, {"measurement": "Kd", "setting": "[4]", "result": "38 ± 2", "unit": "µM"}]}
